Test results reported in article PMC7738311.

Biological target: His-tagged MafAI (MafAI.1 of N. meningitidis BB-1, from plasmid pEN-mafAI-H) (Neisseria meningitidis strain BB-1)
Assay: semi-native SDS-PAGE with Western blot (heat modifiability); cell envelopes of BB-1, samples heated at 95°C or not before electrophoresis; sample buffer with 0.2% SDS and no β-mercaptoethanol, run on ice; detected with anti-His-tag antibodies (MafAI) or anti-MafAII antiserum

## His-tagged MafAI (MafAI.1 of N. meningitidis BB-1, from plasmid pEN-mafAI-H) (natural protein)
  stoichiometry N: 8 subunits
